Substrate: CCn1c(=NN=c2sc3cc(S(=O)(=O)O)ccc3n2CC)sc2cc(S(=O)(=O)O)ccc21
Assay: purified protein
Type: biochemical, Armoracia rusticana
Settings: H2O2 co-substrate, 50 mM phosphate citrate pH 5, 30 °C, 0.05-7 mM ABTS, enzyme from cultivation F5 (glass, with Co and boric acid)

B1: horseradish peroxidase isoenzyme A2A (HRP) (Armoracia rusticana) (protein)
chain: QLNATFYSGTCPNASAIVRSTIQQAFQSDTRIGASLIRLHFHDCFVDGCDASILLDDSGSIQSEKNAGPNANSARGFNVVDNIKTALENTCPGVVSCSDILALASEASVSLTGGPSWTVLLGRRDSLTANLAGANSAIPSPFEGLSNITSKFSAVGLNTNDLVALSGAHTFGRARCGVFNNRLFNFSGTNGPDPTLNSTLLSSLQQLCPQNGSASTITNLDLSTPDAFDNNYFANLQSNNGLLQSDQELFSTLGSATIAVVTSFASNQTLFFQAFAQSMINMGNISPLTGSNGEIRLDCKKVDGS
notes: secreted from K. phaffii BSYBG11 MutS, codon-optimized gene; glycosylated, negative AIEX flow-through; monomeric, 2 calcium, heme
For B1, the Km was 2110 ± 350 µM.

— paper PMC7763993, “Depletion of Boric Acid and Cobalt from Cultivation Media: Impact on Recombinant Protein Production with Komagataella phaffii” (Bioengineering, 2020)
